Measurements reported in the supplement of paper PMC9732359.
± gives the uncertainty stated by the source.

Experiment: protein stability index of a GFP-peptide fusion (yeast GPS) (PSI 1-4); higher = more stable; sorted into four equal gates, so the index is relative within each strain
Summary of the method: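 Sequencing reads from sorted gates were used to score each peptide. The library consisted of tiled 17-residue yeast protein peptides fused downstream of GFP on a Cherry-expressing plasmid, pooled and carried in yeast. Mid-log cultures in leucine-free medium were split into four equal gates by GFP/Cherry ratio, and each gate's plasmids were PCR-amplified and Illumina-sequenced. The protein stability index adds up, over all gates, the read frequency multiplied by the gate number.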

Row | Sequence | protein stability index (doa10∆) | protein stability index (pdr5∆) | protein stability index (san1∆) | protein stability index (ubr1∆)
1 | KSWLNRLNNWLFGWNDL [YMR153W/NUP53] | 2.63 ± 0.057 | 2.33 ± 0.045 | 2.03 ± 0.065 | 2.68 ± 0.04
2 | VPEMIGSVVGIYNGKAF [RPS15] | 1.27 ± 0.15 | 1.34 ± 0.074 | 1.66 ± 0.24 | 1.41 ± 0.072
3 | LQLTTNTEQGDSDELGG [SNM1] | 3.25 ± 0.16 | 3.55 ± 0.29 | 3.29 ± 0.11 | 3.09 ± 0.24
4 | IDDENITKLNKEIRAFD [SRB4] | 3.44 ± 0.066 | 3.33 ± 0.063 | 3.27 ± 0.043 | 3.38 ± 0.056
5 | LKAQITSLKCLVNRKPI [SNF2] | 2.05 ± 0.045 | 1.77 ± 0.038 | 1.6 ± 0.062 | 1.61 ± 0.032
6 | RNRDIALFQPPNFDWDL [ROX3] | 3.12 ± 0.096 | 3.33 ± 0.12 | 3.17 ± 0.11 | 2.98 ± 0.11
7 | FKQAKERVMKNKVEENL [RPT2] | 3.11 ± 0.11 | 3.27 ± 0.061 | 3 ± 0.14 | 3.29 ± 0.11
8 | QPSQQPQQAQQQPNPLH [GAL11] | 2.91 ± 0.05 | 2.95 ± 0.037 | 2.85 ± 0.035 | 2.97 ± 0.034
9 | KRFQVLYPCYFDINRSH [SEC65] | 2.11 ± 0.062 | 2.11 ± 0.055 | 1.88 ± 0.071 | 2.06 ± 0.039
10 | LFPNELYNVMGINKKKL [RPC31] | 3.09 ± 0.27 | 2.87 ± 0.24 | 3.29 ± 0.082 | 3.5 ± 0.26
11 | ARDAPTKISTLAVKVHG [QCR2] | 1.4 ± 0.11 | 2.09 ± 0.14 | 1.38 ± 0.14 | 1.09 ± 0.045
12 | RSEDPAGLGKTNELWAR [YGR119C/NUP57] | 2.82 ± 0.068 | 2.24 ± 0.077 | 3.25 ± 0.075 | 3.4 ± 0.088
13 | IRKGANDGEVYQKIFKP [PRE9] | 2.06 ± 0.098 | 1.81 ± 0.068 | – | 1.83 ± 0.059
14 | CRNINRKHRNAQFAGRA [DIS3] | 2.54 ± 0.11 | 2.78 ± 0.071 | 2.18 ± 0.22 | 2.92 ± 0.086
15 | ISICMILCGIQEYLNPV [YDL116W/NUP84] | 1.97 ± 0.1 | 1.61 ± 0.11 | – | 1.87 ± 0.14
16 | SNELIEHFSHFGHIMED [YDL088C/ASM4] | 3.33 ± 0.12 | 3.09 ± 0.065 | 2.94 ± 0.053 | 2.99 ± 0.045
17 | NLQPISTPENVPRLFDL [SMC4] | 2.89 ± 0.11 | 2.93 ± 0.084 | 2.6 ± 0.12 | 2.48 ± 0.064
18 | RASKLKIQASDVNIIGK [RPO31] | – | 3.04 ± 0.17 | 2.7 ± 0.24 | –
19 | LLGTMAGGAADCQFWET [PRE2] | 1.61 ± 0.069 | 2.6 ± 0.078 | 2.22 ± 0.084 | 2.65 ± 0.078
20 | ILDAICFVLGIASMSTV [SMC2] | 1.45 ± 0.046 | 1.77 ± 0.054 | 1.78 ± 0.067 | 1.67 ± 0.06
21 | APYRKQIISNAHNKPSL [YAR002W/NUP60] | 2.17 ± 0.073 | 2.47 ± 0.081 | 2 ± 0.1 | 2.36 ± 0.085
22 | STKKIQVATKYASLKLP [YMR129W/POM152] | 1.78 ± 0.047 | 1.93 ± 0.036 | 1.55 ± 0.069 | 1.92 ± 0.038
23 | NMMDAISFVLGVRSNHL [SMC1] | 2.28 ± 0.063 | 2.58 ± 0.079 | 2.77 ± 0.067 | 2.66 ± 0.064
24 | RLQAANSMEYTGKITKM [CDC53] | 2.99 ± 0.12 | 2.62 ± 0.14 | 2.52 ± 0.094 | 2.73 ± 0.064
25 | LITSSARKELPIFDYIH [SIR3] | 2.16 ± 0.056 | 2.06 ± 0.061 | 1.92 ± 0.068 | 2.48 ± 0.048
26 | QKIRNSEGISEATREVF [ITC1] | 3.11 ± 0.2 | 3.47 ± 0.19 | 2.81 ± 0.15 | –
27 | IMQEAGLRAVRKNRYVI [RPT3] | 2.89 ± 0.076 | 2.97 ± 0.099 | 2.91 ± 0.083 | 3.29 ± 0.13

Row | Sequence | protein stability index (doa10∆) | protein stability index (pdr5∆) | protein stability index (san1∆) | protein stability index (ubr1∆)
28 | DALEMQWRYLYDTQLKV [ARP7] | 1.75 ± 0.053 | 1.55 ± 0.046 | 1.41 ± 0.088 | 1.53 ± 0.05
29 | FTKKPVTPNDKIPEREE [SIR4] | 3.05 ± 0.13 | 2.95 ± 0.087 | 3.27 ± 0.13 | 3.1 ± 0.063
30 | VFSHAQTAVTCESCSTV [RPS27B] | 1.57 ± 0.13 | 2.46 ± 0.14 | 2.24 ± 0.15 | 2.04 ± 0.11
31 | VAEIEKTADVKRQYVKQ [RPL20A] | 3.33 ± 0.13 | 3.2 ± 0.088 | 2.94 ± 0.13 | 3.1 ± 0.079
32 | TAGKTSVKSARTSTRGR [SNF2] | 3.44 ± 0.058 | 3.37 ± 0.052 | 3.12 ± 0.042 | 3.206 ± 0.031
33 | MRSTSILTEHLGYPPIS [MTW1] | 2.9 ± 0.076 | 2.74 ± 0.065 | 2.87 ± 0.062 | 3.06 ± 0.091
34 | EEQEEEPDREKIKLLTQ [RPC19] | 2.93 ± 0.25 | 3.24 ± 0.11 | 2.52 ± 0.15 | 2.65 ± 0.23
35 | KTSNIESVPIYSIDEFF [BRR2] | 2.56 ± 0.062 | 2.58 ± 0.067 | 2.34 ± 0.045 | 2.13 ± 0.083
36 | SHFDYNTLEFIIEQLSI [YCG1] | 2.48 ± 0.078 | 2.62 ± 0.12 | 2.18 ± 0.14 | 2.37 ± 0.086
37 | SSVIQNYDIITASSLAH [YML103C/NUP188] | 1.69 ± 0.079 | 1.88 ± 0.066 | 1.98 ± 0.092 | 2.03 ± 0.041
38 | NLRLLVEENRVRYTTSV [DLS1] | 2.33 ± 0.071 | 2.65 ± 0.056 | 2.08 ± 0.079 | 2.43 ± 0.048
39 | EGNTVLEKGNNPSVKQG [SWP82] | 3.11 ± 0.067 | 3.12 ± 0.082 | 3.26 ± 0.065 | 2.87 ± 0.064
40 | FEASCMEGQKLDDPVLN [YJR042W/NUP85] | 1.83 ± 0.088 | 1.76 ± 0.086 | 1.45 ± 0.21 | 1.53 ± 0.061
41 | DAGKIDKHLYHVLYKES [RPL19A] | 3.25 ± 0.24 | 3.12 ± 0.2 | 2.7 ± 0.091 | 2.89 ± 0.083
42 | VQSKARYTVRTFGIRRN [RPL11A] | 1.78 ± 0.083 | 1.86 ± 0.073 | 1.35 ± 0.11 | 1.53 ± 0.086
43 | PTRYVLIRNVGTNTYRL [POP1] | 1.97 ± 0.29 | 1.32 ± 0.23 | 1.12 ± 0.28 | –
44 | IFAGAFVFQTVFDTAIT [QCR9] | 1.61 ± 0.048 | 1.35 ± 0.033 | 1.48 ± 0.076 | 1.67 ± 0.04
45 | SPLLESDSIEKIVEIDR [PUP2] | 3.48 ± 0.11 | 3.08 ± 0.1 | 2.59 ± 0.15 | 3.49 ± 0.14
46 | ADRNDDDEGSFAQENSE [SRB6] | 3.08 ± 0.11 | 3.22 ± 0.13 | 2.6 ± 0.17 | 3.22 ± 0.12
47 | AAKLKQTENDLKDIEAR [RPT1] | 2.48 ± 0.1 | 2.53 ± 0.1 | 2.46 ± 0.19 | 3.1 ± 0.087
48 | KHWQERVKVHFDQAGKK [RPL13A] | 2.31 ± 0.046 | 2.33 ± 0.047 | 2.28 ± 0.064 | 2.35 ± 0.036
49 | TFDGIRMSSEEVNSLLL [GRR1] | 3.03 ± 0.099 | 3.04 ± 0.15 | 3.14 ± 0.15 | 2.92 ± 0.074
50 | KFLKIASLKHDNETKAM [RPN3] | 2.75 ± 0.1 | 3.16 ± 0.13 | 2.76 ± 0.1 | 3.17 ± 0.12
51 | EISAAHNKLNITSDALE [SMC3] | 2.64 ± 0.17 | – | 2.58 ± 0.23 | –
52 | QFLYEKHYKNIPRNSPL [RPC82] | 1.92 ± 0.068 | 1.9 ± 0.056 | 1.68 ± 0.066 | 2.08 ± 0.035
53 | PLSESLRLVDDDENNPS [RRP6] | 3.15 ± 0.11 | 3.12 ± 0.096 | 2.98 ± 0.084 | 3.08 ± 0.084
